Measured values taken from patent publication US20260185118A1 (priority 2023, published 2026).
Read-outs that look alike come from different tables or passages of the source.

Experiments:
[1] = test system: bacterial and fungal; details: it has been shown; cited from earlier work
[2] = assay type: biochemical, Citrus sinensis L.Osbeck; details: 2 μg protein, 10 μg FPP, 30° C., 30 min
[3] = biological target: MBP-CsMYC2-HA
[4] = biological target: CsMYC2-myc
[5] = test system: Huanglongbing pathogen CLas; design: species or system Candidatus Liberibacter asiaticus; details: in vivo
[6] = test system: Huanglongbing pathogen CLas; assay type: in vivo, Candidatus Liberibacter asiaticus; details: for disease phenotype: 3 months after grafting infected branches onto transgenic citrus; for pathogen titer versus vector control: qPCR, newborn leaves
[7] = test system: Huanglongbing pathogen CLas; assay type: in vivo, Candidatus Liberibacter asiaticus; details: 7 days after feeding of CLas-carrying psyllids, qPCR
[8] = test system: CsPUB21; assay type: biochemical, Citrus sinensis; details: in the presence of E1 (AtUBA1) and E2 (AtUBC8), anti-c-myc immunoblot
[9] = test system: terpene synthase CsTPS21 gene cluster; assay type: in vivo, Valencia orange; details: transgenic citrus leaves overexpressing, compared with blank vector control
[10] = test system: CsMYC2; assay type: binding, Citrus sinensis; details: yeast AH109, SD-Leu-Trp-His with 5 mM 3-AT
[11] = test system: CsMYC2; assay type: cell-based, Citrus sinensis; details: tobacco leaves, 2-3 days, cytoplasm and nucleus
[12] = test system: CsMYC2; assay type: biochemical, Citrus sinensis; details: with AtUBA1, AtUBC8 and ubiquitin, anti-MBP immunoblot
[13] = test system: CsMYC2 protein; assay type: cell-based, Citrus sinensis; details: tobacco leaves, 35S:CsMYC2-myc co-injected, versus 35S:YFP

Molecule: C=C1CC/C=C(\C)CC[C@@H]2[C@@H]1CC2(C)C [β-caryophyllene]
- bacterial and fungal killing effect [1]: rapid bacterial and fungal killing effect

B1: CsTPS21-7: citrus terpene synthase protein, SEQ ID No. 7, purified as GST fusion protein (protein)
chain: MKDMSIPLLAAVSSSTEETVRPIADFHPTLWGNHFLKSAADVETIDAATQEQHAALKQEVRRMITTTANKLAQKLHMIDAVQRLGVAYHFEKEIEDELGKVSHDLDSDDLYVVSLRFRLFRQQGVKISCDVFDKFKDDEGKFKESLINDIRGMLSLYEAAYLAIRGEDILDEAIVFTTTHLKSVISISDHSHVNSNLAEQIRHSLQIPLRKAAARLEARYFLDIYSRDDLHDETLLKFAKLDFNILQAAHQKEASIMTRTKDISEVDTILGVKVKKHSGERANISIIFDFFRWDIGLIDTLPEYMKFIVKALLDIYREAEEELAKEGRSYGIPYAKQMMQELIILYFTEAKWLYKGYVPTFDEYKSVALRSIGLRTLAVASFVDLGDFIATKDNFECILKNAKSLKATETIGRLMDDIAGYKFEQKRGHNPSAVECYKNQHGVSEEEAVKELLLEVANSWKDINEELLNPTTVPLPMLQRLLYFARSGHFIYDDGHDRYTHSLMMKRQVALLLTEPLAI
modifications: GST fusion tag
- 7-epi-sesquiterpene share of the total compounds [2]: 4.79±0.11%
- (E)-β-farnesene share of the total compounds [2]: 5.54±0.32%
- sesquiterpene share of the total compounds [2]: 7.86±0.70%
- β-caryophyllene share of the total product [2]: 81.81±0.92%

B2: CsPUB21-Myc (protein)
chain: MILSWKRLRGGRGRRAGKKQPGVESGGEMELTTPNHFRCPISLDLMKDPVTLSTGITYDRENIEKWIHEDGNITCPVTNRVLTSFEPIPNHTIRRMIQDWCVENRSYGIERIPTPRIPVSSVEVFEINCNITTACKSEDQAGCRDLVAKIKKWTKESDRNKRCIVDNGAVSVLAEAFETFSKTCLDENVSVLEEILSTLTLLFPLAGEGLTYLGSASSMRCMVWFLKSGDLSRRRNAVLVLREIVSSDHRKVNVLLDIEGAIEPLFKLIKEPICPTATKASLVVVYRTITSASATEKPIQKFVDMGLVSLLLEMLVDAQRSLCEKALSVLDGLCSSDYGRGDAYNNSLIFPVIVKKILRVSDLATEFAVSILWKLCKNEEREEKTAFAEALQVGAFQKLLLLLQVGCADKTKEHVSELLKLLNPHRARLECIDSMDFKDLKRPF
- polyubiquitination of MBP-CsMYC2 (immunoblot with anti-MBP tag antibody; E. coli system with AtUBA1, AtUBC8 and FLAG-UBQ) [3]: CsPUB21 is able to effectively polyubiquitinate the CsMYC2 protein in vitro

B3: CsPUB21DN-Myc (protein)
chain: MILSWKRLRGGRGRRAGKKQPGVESGGEMELTTPNHFRAPISLDLMKDPVTLSTGITYDRENIEKWIHEDGNITCPVTNRVLTSFEPIPNHTIRRMIQDWCVENRSYGIERIPTPRIPVSSVEVFEINCNITTACKSEDQAGCRDLVAKIKKWTKESDRNKRCIVDNGAVSVLAEAFETFSKTCLDENVSVLEEILSTLTLLFPLAGEGLTYLGSASSMRCMVWFLKSGDLSRRRNAVLVLREIVSSDHRKVNVLLDIEGAIEPLFKLIKEPICPTATKASLVVVYRTITSASATEKPIQKFVDMGLVSLLLEMLVDAQRSLCEKALSVLDGLCSSDYGRGDAYNNSLIFPVIVKKILRVSDLATEFAVSILWKLCKNEEREEKTAFAEALQVGAFQKLLLLLQVGCADKTKEHVSELLKLLNPHRARLECIDSMDFKDLKRPF
- polyubiquitination of MBP-CsMYC2 (immunoblot with anti-MBP tag antibody; E. coli system with AtUBA1, AtUBC8 and FLAG-UBQ) [3]: CsPUB21DN cannot ubiquitinate CsMYC2

B4: YFP-CsPUB21DN (protein)
chain: MILSWKRLRGGRGRRAGKKQPGVESGGEMELTTPNHFRAPISLDLMKDPVTLSTGITYDRENIEKWIHEDGNITCPVTNRVLTSFEPIPNHTIRRMIQDWCVENRSYGIERIPTPRIPVSSVEVFEINCNITTACKSEDQAGCRDLVAKIKKWTKESDRNKRCIVDNGAVSVLAEAFETFSKTCLDENVSVLEEILSTLTLLFPLAGEGLTYLGSASSMRCMVWFLKSGDLSRRRNAVLVLREIVSSDHRKVNVLLDIEGAIEPLFKLIKEPICPTATKASLVVVYRTITSASATEKPIQKFVDMGLVSLLLEMLVDAQRSLCEKALSVLDGLCSSDYGRGDAYNNSLIFPVIVKKILRVSDLATEFAVSILWKLCKNEEREEKTAFAEALQVGAFQKLLLLLQVGCADKTKEHVSELLKLLNPHRARLECIDSMDFKDLKRPF
- accumulated level of the CsMYC2 protein on co-expression in tobacco leaves (immunoblot, anti-c-myc) [4]: this reduction was inhibited by coexpression of CsPUB21DN

B5: CsPUB21DN (protein)
chain: MILSWKRLRGGRGRRAGKKQPGVESGGEMELTTPNHFRAPISLDLMKDPVTLSTGITYDRENIEKWIHEDGNITCPVTNRVLTSFEPIPNHTIRRMIQDWCVENRSYGIERIPTPRIPVSSVEVFEINCNITTACKSEDQAGCRDLVAKIKKWTKESDRNKRCIVDNGAVSVLAEAFETFSKTCLDENVSVLEEILSTLTLLFPLAGEGLTYLGSASSMRCMVWFLKSGDLSRRRNAVLVLREIVSSDHRKVNVLLDIEGAIEPLFKLIKEPICPTATKASLVVVYRTITSASATEKPIQKFVDMGLVSLLLEMLVDAQRSLCEKALSVLDGLCSSDYGRGDAYNNSLIFPVIVKKILRVSDLATEFAVSILWKLCKNEEREEKTAFAEALQVGAFQKLLLLLQVGCADKTKEHVSELLKLLNPHRARLECIDSMDFKDLKRPF
modifications: left off: large carriers
- concentration of CLas in the susceptible leaves [5]: significantly reduced
- disease phenotype [6]: still show a healthy state
- pathogen titer versus vector control ([6]; 3 months of infestation): lower pathogen titer than the vector control plants
- CLas detection versus vector control plants [7]: significantly lower than that of the vector control plants
- Ct values versus healthy plants [7]: no difference in the Ct values

B6: CsPUB21: citrus plant U-box E3 ubiquitin ligase protein, amino acid sequence SEQ ID No. 1; overexpressed in citrus (protein)
chain: MILSWKRLRGGRGRRAGKKQPGVESGGEMELTTPNHFRCPISLDLMKDPVTLSTGITYDRENIEKWIHEDGNITCPVTNRVLTSFEPIPNHTIRRMIQDWCVENRSYGIERIPTPRIPVSSVEVFEINCNITTACKSEDQAGCRDLVAKIKKWTKESDRNKRCIVDNGAVSVLAEAFETFSKTCLDENVSVLEEILSTLTLLFPLAGEGLTYLGSASSMRCMVWFLKSGDLSRRRNAVLVLREIVSSDHRKVNVLLDIEGAIEPLFKLIKEPICPTATKASLVVVYRTITSASATEKPIQKFVDMGLVSLLLEMLVDAQRSLCEKALSVLDGLCSSDYGRGDAYNNSLIFPVIVKKILRVSDLATEFAVSILWKLCKNEEREEKTAFAEALQVGAFQKLLLLLQVGCADKTKEHVSELLKLLNPHRARLECIDSMDFKDLKRPF
- E3 ubiquitin ligase activity (auto-ubiquitination) [8]: has the E3 ubiquitin ligase activity
- expression of four CsTPS21 genes (CsTPS21-2, CsTPS21-7, CsTPS21-9, CsTPS21-10) [9]: significantly reduces
- interaction with CsMYC2 (yeast two-hybrid) [10]: interaction between CsPUB21 and CsMYC2 was confirmed
- interaction with CsMYC2 (BiFC) [11]: confirmed
- polyubiquitination of the CsMYC2 protein in vitro [12]: able to effectively polyubiquitinate
- accumulated level of the CsMYC2 protein on coexpression [13]: significantly reduced
- pathogen titer versus vector control ([6]; 2 and 3 months of pathogen infestation): significantly higher than that of the vector control
- disease phenotype [6]: show disease characteristics of Huanglongbing infection

B7: YFP-CsPUB21 (protein)
chain: MILSWKRLRGGRGRRAGKKQPGVESGGEMELTTPNHFRCPISLDLMKDPVTLSTGITYDRENIEKWIHEDGNITCPVTNRVLTSFEPIPNHTIRRMIQDWCVENRSYGIERIPTPRIPVSSVEVFEINCNITTACKSEDQAGCRDLVAKIKKWTKESDRNKRCIVDNGAVSVLAEAFETFSKTCLDENVSVLEEILSTLTLLFPLAGEGLTYLGSASSMRCMVWFLKSGDLSRRRNAVLVLREIVSSDHRKVNVLLDIEGAIEPLFKLIKEPICPTATKASLVVVYRTITSASATEKPIQKFVDMGLVSLLLEMLVDAQRSLCEKALSVLDGLCSSDYGRGDAYNNSLIFPVIVKKILRVSDLATEFAVSILWKLCKNEEREEKTAFAEALQVGAFQKLLLLLQVGCADKTKEHVSELLKLLNPHRARLECIDSMDFKDLKRPF
- accumulated level of the CsMYC2 protein on co-expression in tobacco leaves (immunoblot, anti-c-myc) [4]: the accumulated level of the CsMYC2 protein and coexpression of CsPUB21 were significantly reduced
